Ends that are not written are not given here. * marks the point of attachment. αGalNAc = CC(=O)N[C@@H]1[C@@H](O)[C@@H](O)[C@@H](CO)O[C@@H]1*
B1: 1D12 monoclonal antibody (antibody, V domains shown)
VH: DVQLVESGGGLVQPGGSRKLSCAASGFTFSSFGIHWVRQAPEKGLEWVAYISSGSSTIYYADTVKGRFTISRDNPKNTLFLQMTSLRSEDTAMYYCARGSKVVAKSRGYWYFDVWGAGTTVTVSS
VL: DVVVTQTPLFLPVSFGDQVSISCRSSQSLANNYGITYLSWYLHRPGQSPQLLIYGISNRFSGVPDRFSGSGSGTDFTLKISTIKPEDLGMYYCLQGTHQPWTFGGGTKLEIK
notes: Murine hybridoma antibody
B2: 4C8 monoclonal antibody (antibody, V domains shown)
VH: QVQLQQPGSELVRPGASVKLSCKASGYTFTSYWMHWVKQRPGQGLEWIGNIYPRSGTTNYDGYFKSKATLTVDTSSSTAYMQLSSLTSEDSAVYFCTRSGYDYPFVYWGQGTLVTVSA
VL: QAVVTQESALTTSPGETVTLTCRTSTGAVSIRNYANWVQEKPDHLFTGLIGGTNNRAPGVPARFSGSLIGDKAALTITGAQPEDEAIYFCALLYSNYWVFGGGTKLTVL
notes: Murine hybridoma antibody from Balb/c mice immunised with the KLH-conjugated CD44v6 glycopeptide; It was detected with anti-mouse IgG Fc-gamma, and used as purified mAb or as hybridoma supernatant; also called 4C8 mAb; mAb 4C8
B3: 2B2 monoclonal antibody (antibody, V domains shown)
VH: EVQLVESGGGLVKPGGSLKLSCAASGFTFSSYAMSWVRQSPERRLEWVAEISSGGSYTYYPDTVTGRFTISRDNAKNTLYLEMSSLRSEDTAMYYCARTVGEDWYFDVWGAGTTVTVSS
VL: DIQMTQTTSSLSASLGDRVTISCRASQDISHYLNWYQQKPDGAVKLLIYSTSRLHSGVPSRFSGSGSGTDYSLTISNLEQEDIATYFCQQGYTLPFTFGSGTKLEIK
notes: Murine hybridoma antibody
B4: 10H4 monoclonal antibody (antibody, V domains shown)
VH: QSLEESGGRLVTPGTPLTLTCTASGFTINTYHMGWFRQAPGKGLQYIGIVSHDVGTYYATWAKGRFTISKTSSTTVDLRMPSPTTEDTATYICARGPGYWTFNLWGQGTLVTVSS
VL: AQVLTQTPASVSAAVGGTVTINCQASQSVYNNNQLSWYQQKPGQPLKQLIYKASTLASGVPSRFKGSGSGSQFTLTISDLECDDAATYFCAGGYKGDIHPFGGGTEVVVK
notes: Rabbit antibody
B5: 18G9 monoclonal antibody (antibody, V domains shown)
VH: DVQLVESGGGLVQPGGSRKLSCAASGFTFSSFGMHWVRQAPEKGLEWVAYISSGSSTIYYADTVKGRFTISRDNPKNTLFLQMTSLRSEDTAMYYCARGSYRAMDYWGQGTSVTVSS
VL: QIVLTQSPALMSASPGEKVTMTCSASSSVNYMFWYQQKPRSSPKPWIYLTSNLASGVPARFSGSGSGTSYSLTISSMEAEDAATYYCQLWSSNPFTFGSGTKLEIK
notes: Murine hybridoma antibody

How the values were obtained:
[1] = target: T1, CD44v6 glycopeptide … with O-linked GalNAc on threonine 5 and serine 12 (human, not fully specified (residue 12)); test: hybridoma screening (ELISA, flow cytometry, immunofluorescence)
T1 construct: Synthetic 19-residue glycopeptide made by FMOC synthesis; also called CD44v6-Tn(S + T); Tn-glycosylated CD44v6 glycopeptide
T1 peptide: GYRQT(αGalNAc)PKEDSHSTTGTAAA

[2] = target: T1, CD44v6 glycopeptide … with O-linked …; test: BLI (Octet), apparent affinity with avidity factored in
[3] = target: T1, CD44v6 glycopeptide … with O-linked …; test: SPR (Biacore); Biacore, not Octet
[4] = target: T2, CD44v6 peptide glycoform CD44v6-Tn(S) (human, not fully specified (residue 12); also: GalNAc (Tn) on serine only, position not given here); test: BLI (Octet); Octet; Tn(S) glycoform
T2 construct: That the serine is Ser 12 is inferred from the two-site glycopeptide
T2 peptide: GYRQTPKEDSHSTTGTAAA

[5] = target: T3, Tn-glycosylated MUC1 (UniProt P15941 138-197, limits assumed, Tn (GalNAc) glycosylated; sites not stated for the material used); test: Biacore (surface plasmon resonance); row MUC1-Tn, column Affinity (Biacore)
T3 construct: also called MUC1-Tn
T3 sequence (P15941 138-197 limits assumed): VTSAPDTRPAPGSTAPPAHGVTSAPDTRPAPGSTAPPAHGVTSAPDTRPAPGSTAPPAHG

Binder | binding result [1] | further results
B1 | binds | 
B2 |  | Kd [2]: 7.9 nM; Kd [3]: 128 nM; Kd [4]: 6.4 nM; Kd [5]: > 400 nM
B3 | binds | 
B4 | binds | 
B5 | binds | 

— patent US20230126689A1 (GO THERAPEUTICS, published 2023)
